Here are results for 1 molecule from patent publication US8628762B2, “T-helper cell type 17 lineage-specific adjuvants, compositions and methods” (Icahn School of Medicine at Mount Sinai, priority 2008, dated 2014).

The test system of one experiment is Naïve CD4 T-cells. In words: qPCR of lineage genes in naïve CD4 T-cells cultured with DCCM. It is filed as cell-based, C57BL/6J mice. The conditions noted are these: quantitative RT-PCR. The source says: (§1) Naïve CD4 T cells were isolated first by sorting with MACS® CD4^+ beads (Miltenyi Biotech, Auburn, Calif.) according to manufacturer's instructions and then by fluorescence activated cell sorting (FACS) using a MoFlo™, Vantage, or Influx™ cell sorter for CD25^−CD44^lowCD62L^high cells using allophycocyanin (APC)-conjugated anti-CD25 monoclonal antibody (mAb) (clone PC61.5), FITC-conjugated CD62L mAb (clone MEL-14), and PE-Cy5-conjugated CD44 mAb (clone IM7) (all from eBioscience™, San Diego, Calif.). Cells were grown in complete IMDM (Gibco, Carlsbad, Calif.) supplemented with 10% FBS, 100 μg/mL penicillin, 100 μg/mL streptomycin, 2 mM L-glutamine, 10 mM HEPES, and 1 nM sodium pyruvate, and activated on 48-well tissue-culture plates which had been coated with 4 μg anti-CD3 (clone 2C11) for 3 h at 37° C., then washed 3 times with PBS. Cultures were supplemented with 2 μg/mL anti-CD28 (clone 37-51, a kind gift from J. Allison, Sloan-Kettering Cancer Center) and anti-IL-4 ascites (clone 11B11, a kind gift from T. Moran, Mount Sinai School of Medicine, ATCC number HB188) at 1:500. mAbs 2C11 and 37-51 were purified from hybridoma supernatants by BioXCell Company (West Lebanon, N.H.). When cultured with conditioned medium (CM) from BMDC, T cells were grown in 1:1 CM:fresh complete IMDM. […]
T cells cultured for 48 hours under the indicated conditions were lysed and RNA isolated by TRIzol® extraction (Invitrogen) according to manufacturer's instructions. […] Quantitative real-time, reverse transcription polymerase chain reaction (qPCR) was conducted on an ABI Prism® 7900 instrument (Applied Biosystems, Foster City, Calif.) with primer pairs and probes as follows. […]
Quantitative PCR was performed using TaqMan® quantitative PCR Master Mix at a concentration of 1× (Applied Biosystems). […] “Fold inductions” were calculated using the ΔΔCt method relative to T cells activated under neutral conditions (No cytokines or CM). […]
A general note: In qPCR the cycle at which signal appears reflects the starting amount.

For the next experiment, the system named is Naïve CD4 T cells. In words: Intracellular staining (IL-17, IFN-γ, IL-10, Foxp3) of CD4 T cells cultured with DCCM, flow cytometry. The note with it: IL-6 added to DCCM-apoptotic B-cells or DCCM-apoptotic neutrophils. It is filed as cell-based, C57BL/6J mice.
Description: as §1, with “PBS.” for “PBS. Cultures were supplemented with 2 μg/mL anti-CD28 (clone 37-51, a kind gift from J. Allison, Sloan-Kettering Cancer Center) and anti-IL-4 ascites (clone 11B11, a kind gift from T. Moran, Mount Sinai School of Medicine, ATCC number HB188) at 1:500. mAbs 2C11 and 37-51 were purified from hybridoma supernatants by BioXCell Company (West Lebanon, N.H.). When cultured with conditioned medium (CM) from BMDC, T cells were grown in 1:1 CM:fresh complete IMDM.”
Because development of Treg cells is reciprocally related to TH17 cells^10 expression of Foxp3, a transcription factor unique to Treg cells^19 was examined. After 3 days of culture with DCCM from the indicated groups, T cells were restimulated with PMA and ionomycin for 4 hours with Brefeldin A before intracellular cytokine staining for IL-17 and IFN-γ was performed, and expression of these cytokines was determined by FACS. […]

B1: IL-6: cytokine interleukin-6 (Peprotech), 50 ng/mL (protein, UniProt P08505 25-211, looked up)
Interleukin-6: FPTSQVRRGDFTEDTTPNRPVYTTSQVGGLITHVLWEIVEMRKELCNGNSDCMNNDDALAENNLKLPEIQRNDGCYQTGYNQEICLLKISSGLLEYHSYLEYMKNNLKDNKKDKARVLQRDTETLIHIFNQEVKDLHKIVLPTPISNALLTDKLESQKEWLRTKTIQFILKSLEEFLKVTLRSTRQT
Regarding B1, the “Foxp3 mRNA induction” value in the experiment on Naïve CD4 T-cells was “Foxp3 induction was impaired”. In the experiment with Naïve CD4 T cells, the Foxp3 expression result is reported as “markedly impaired Foxp3 expression” and the IL-17 production result is given as “restored IL-17 production”.
